Test results reported in the nanobody polyreactivity screen of Harvey et al. (2022).

Experiment: yeast display, Sf9 membrane polyspecificity reagent, FACS + sequencing; frameworks hold sequencing errors
Summary of the method: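 Nanobodies came from a synthetic yeast display library in Saccharomyces cerevisiae BJ5465, induced with galactose for 36–48 hours and stained for 1 hour at 4 °C with 10% biotinylated, detergent-solubilized Sf9 membrane reagent. Cells were enriched on streptavidin microbeads and then FACS-sorted, with low and high (top ~1%) gates set on anti-HA fluorescence for expression and streptavidin fluorescence for reagent binding. Each polyreactivity label reflects the gate a clone came from. Genes were amplified by colony PCR, sequenced by MiSeq 2 × 250 and filtered by CDR length.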

Sequence	polyreactivity (PSR sort gate)
QVQLVESGGGLVQAGGSLRLSCAASGSTFRYYAMGWYRQAPGKERELVASISSGGSTNYADSVKGRFTISRDNAKNTVYLQMNSLKPEDTAVYYCNADSWTVNRRYYYYRYEYWGQGTQVTVSS	low polyreactivity
QVQLVESGGGLVQAGGSLRLSCAASGLTFSRNTMGWYRQAPGKERELVDTIDRGGRTNYADSVKGRFTISRDNAKNTVYLQMNSLKPEDTAVYYCATDASFYDPDLYPYGYDYWGQGTQVTVSS	high polyreactivity
QVQLVESGGGLVQAGGSLRLSCAASGIIFVTYAMGWNRQAPGKEREFVAGINWNGGSTYYADSVKGRFTISRDNAKNTVYLQMNSLKPEDTAVYYCNAENYRVRQRSSVKYDYWGQVTQVTVSS	low polyreactivity
QVQLVESGGGLVQAGGSLRLSCAASGIIFPRYAMGWYRQAPGKERELVAAITKRGGSTYYADSVKGRFTISRDNAKNTVYLQMNSLKPEDTAVYYCAADDNSGYYYWGQGTQVTVSS	high polyreactivity
QVQLVESGGGLVQAGGSLRLSCAASGITFDLYAMGWYRQAPGKEREFVATISWTGGTTYYADSVKGRFTISRDNAKNTVYLQMNSLKPEDTAVYYCNKGSDFFWYDYDYWGQGTQVTVSS	low polyreactivity
QVQLVESGGGLVQAGGSLRLSCDASGSTFDSYAMGWYRQAPGKERELVAAINQGGGSTYYADSVKGRFTISRDNAKNTVYLQMNSLKPEDTAVYYCGADRSGSFYKLDYWGQGTQVTVSS	low polyreactivity
QVQLVESGGGLVQAGGSLRLSCAASGRTFQWYAMGWYRQAPGKERELVAAIRYSAGSTYYADSVKGRFTISRDHAKNTVYLQMNSLKREDTAVYYCAAEPYPYGPYYFLWLRYDYWGQGTQVTVSS	low polyreactivity
QVHLVESGAGLVQAGGSLRLSCPASGSIFFLYPMGWYRQAPGKESELVAAITWRVGSTYYADSVKGRFTISRDNAKNTVYLQMNSLKPEDTAVYYCAAYFLGFQVRYDYWGQGTQVTVSS	high polyreactivity
QVQLVESGGGLVQAGGSLRLSCAASGSIFEGNAMGWDRQAPGKERELVASISGDGSTNYADSVKGRFTISRDNAKITVYLQMNCLKPEDTAVYYCAASFRWYGTVRYPYEMYYWGQGTQVTVSS	low polyreactivity
QDQLVESGGGLVQAGGSLRLSCAASGLTLYKNGLGWYRQAHGKEMELVAVISRSGGRTYYADSVKGRFTISRDNAKYTVYLQMNSLKPEDTAVYYCAARQYGPSYTYYYWGQGTQVTVSS	high polyreactivity
QVQLVESGGGLVQAGGSLRLSCAASGRIFLWNAMGWYRQAPGKERELVAAISWSGGSTYYADSVKGRFTISRDNAKNTVYLQMNSLKPEDTAVYYCNRLLSLEYGYWGQGTQVTVSS	high polyreactivity
QVQLVESGGGLVQAGGSLRLSCAASGRTIPTYDMGWYRQAPGKERELVASIRSGGRTKYADSVKGRFTISRVNAKNTVYLQMNSLKPEDTAVYYCAADRRAYYYSFDYWGQGTQVTVSS	low polyreactivity
QVQLVESGGRLVQAGGSLRLICAASGLTIRSYAMGWYRQAPGKERELVAAISDSGDSTYYADSVKGRFTISRDNAKNTVYFQMNSLKPEDTAVYYCAVEYSYEYEFWGQGTQVTVSS	low polyreactivity
QLQLVESGGGLVQAGGSLSLSCAASGRIFYVYAMGWYRQAPGKEREFVAAITRRSGSTYYADSVKGRFTISRDNAKNTVYFQMNSLKPEDTSVYYCNARLKYAIPQVPPYDYWGQGTQVTVSS	high polyreactivity
QVQLVESGGGLVQAGGSLRLSCAASGSIFPYNDMGWYRQAPGKERELVAAISDSAGSTYYADSVKGRFTISRDNAKNTVYLQMNSLKPEDTAVYYCADYDYWGQGTQVTVSS	low polyreactivity
QVQLVESGGCLVQAGGSLRLSCAASGRIVYPYAMGWYRQAPGKERELVAAISSSGGSTYYADSVKGRFTISRDNAKNTVYLQMNSLKPDDTAVYYCAAQEFQKRLGGSWCRYDYWGQGTQVNVSS	high polyreactivity
QVQLVESGGGLVQAGGSLRLSCAASVFTFSRYAMGWYRQAPGKERELVAAITSRGGSTYYADSVKGRFTISRDNAKNTVYLQMNSLKPEDTAVYYCAASGRNRKDGLYEYYYWGQGTQVTVSS	high polyreactivity
QVQLVESGGGLVQAGGSLRLSCAASGSIFVFYDMGWYRQAPGKERELVATISSGGGGTYYTDSVKGRFTISRDNAKNTVYLQMNSLKPEDTAVYYCAAEGDKYGKGDGYWGQGPQVTVSS	low polyreactivity
QVQLVDSGGGLVQAGGSLRLTCAASGSIFNHKAMGGYRQAHGKERELVAAIRFSTGTTYYADSVKGRFTISRDYAMNTVYVQMNSLKPEDTAVYYWNAQGYFTDYWLSSYFRDFDYWGQGTHVTVSS	low polyreactivity
QVQLVESGGGLVQAGGSLRLSCAASGRTSRSNAMGWYRQAPGKERELVAAISSGGSTYADSVKGRFTISRDNAKNTVYLQMNSLKPEDTAVYYCAARYRTRYAGYNYWGQGTQVTVSS	high polyreactivity
QVQLVESGGGVVQAGGSLRLSCAASGSTFGYYTMGWNRQAPGKERELVAAISRSGCRTYYADSVKGRFTISRDNAMNAVYLHMTSLKPDYTAVYYCNADGTRYAGDDYWGQGSQVTVSS	high polyreactivity
QVQLVESGGGLVQAGGSLRLSCAASGRIFYRYVMGWYRQAPGKERELVAAITSSGGSTYYADSVKGRFTISRDNAKNTVYLQMNSLKPEDTAVYYCAADRYTRYRYNYWGQGTQVTVSS	high polyreactivity

Sequence	polyreactivity (PSR sort gate)
QVQLVESGGGLVQAGGSLRLSCAASGSTFQVYGLGWYRQAPGKERELVAAISRSGGRTYYADSVKGRFTISRDNAKNTVYLQMNSLKPEDTAVYYCAKTYQTTTSKSGYYYWGQGTQVTVSS	high polyreactivity
QVQLVESGGGLVQAGGILRLSCAPSGRIFKYYGMGWYRQAPGKERELVAAIYRGSSTNYAHSVKGRFTISRDNAKNTVYLQMNSLKPEDTAVYYCAKVGWSRRYYYWGQGTQVTVSS	high polyreactivity
QVQLVESGGGLVQAGGSLRLSCAASGRTFQRYTMGWYRQAPGKERELVASISRSGGSTYYADSVKGRFTISRDNAKNTVYLQMNSLKPEDTAVYYCATRSLFWNRNHYRVSSPVLYDYWGQGTQVTVSS	high polyreactivity
QVQLVESGGGLVQAGGSLRLSCAASGRTLYGYAMGWYRQAPGKERELVASIRSGGSTNYADSVKGSFTISRDNAKNTVYFQMNSLKQEYTAVYYCAAEPYYSYGYYHAHGRDVGYWGQGTQVTVSS	low polyreactivity
QVQLVESSGGLVQAGGSLRLSCSASGRTFVWYDMGWYRQAPGKERELVAAITKRGTSTYYADSVKGRFTISRDNAKNTVYLQMNSLKPEDTAVYYCAVEYIYWFHCRSSFIYDYWGQGTQVTVSS	low polyreactivity
QVQLVESGGGLVQAGCSLRLSCASSGGIFSWYAMGRYRQAPGKEREFVAAISWRGGRTYYADSVKGRFTISRDNAKNTVYLQMNSLKPEDTAVYYCAVANRAGEDDYWGQGSQVTVSS	high polyreactivity
QVQLVESGGGLVQAGGSLRLSCAASGFIINKYTMGWYRQAPGKERELVAAITWSGGTTYYADSVKGRFTISRDNAKNTVYLQMNSLKPEDTALYYCAAYYYRGRVCAYDYWGQGTQVTVSS	high polyreactivity
QVQLVESGGGLVQAGGSLRLSCAPSGLILDGNVMGWYRQAPGTERELVAAINTSGGSTYYADSVKGRFTISRDNAKNTVYLQMNSLKPEDTAVYYCAARYPTDYDYWGQGTQVTVSS	low polyreactivity
QVQLVESGGGLVQAGGSHRLSCAASGRIFRPNAMGWYRQAPGKERELVASISQSGGSTYADSVKGRFTISRDNAKNTVYLQMNSLKPEDTAVYYCAKVQGWRYQIYDYWGQGTQVTVSS	low polyreactivity
QVQLVESGGGLVQAGGSLSLSCAASGRTFNSNAMGWYRQAPGKERELVAAISNRGTRTYYADSVKGRFTISRDNAKNTVYLQMNSLKPEDTAVYYCAASERDQRFKHYYWGQGTQVTVSS	high polyreactivity
QVQLQESGGGLVQAGGSLRLSCAASGTIFTARFMGWSRQAPGKERDLVATITDGGNTNHADSVKGRFTISRDNAKNTVYLQMNSLKPEDAAVNYSAAGEVDNDTLLYWGQGSQVTVSS	low polyreactivity
QVQLVESGGGLVQAGRSLRISCAASGRIFYYNDMGRYRQAPGKERELVAAITWTDDGTYYADSVKARFTISRDNAKNTVYLQMNSLKPEVTAVYYCAAESFYGFEYWGQGTQLTVSS	low polyreactivity
QVQLVESGGGLVQAGGSIRLSCAASGSTYFVYTMGWYRQATGQERELVAAISGSGRSTSYADSVKGRFTISRDNAKNTVYLQMNSLKPEDNAVYYCAARSHVYLRGSTFEFNYWGQGTQVTVSS	high polyreactivity
QVQLVESGGGLVQAGGSLRLSCAASGFIFVWYAMGWYRQAPGKERELVAAINGGGRTNYADSVKGRFTISRDNAKYTVYLQMNSLKPEDTAVYYGAAVSYYKSYGEFDYWGQGTQVTVSL	high polyreactivity
QVQLVESGGGLVQAGGSLRLSCAASGSIFRYYTMGWYRQEPGKERELVAAISCNGGRTYYADSVKGRFTISCDNAKNTVYLQMNSLKPEDTAVYYCNAVYILTETWYDYWGQGTQVTVSS	high polyreactivity
QVQLVESGGGLVQAGGSLRLSCAASGNIFGFYTMGWYRQAPGKERELVAAIRSRGGSTNYADSVKGRFTISRDNAKNTVYLQMNSLTPEDTAVYYCNKDGTWLARAVTYADFDYWGQGTQVTVSS	low polyreactivity
QVQLVESGGGLVQAGGSLRLSCAASGSTFIYNAMGWYRQAPGKERELVAAITDGSTKYADSVKGRFTISRDNAKNTVYLQMNSLKPEDTAVYYCNAYVWRWRYDSWGQGTQVTVSS	low polyreactivity
QVQLVESGGGLGQAGGSLRLSCAASGSIFSANAMGWYRQAPGKERELVASITGDGSTNYADSVKGRFTISRDNAKNTVYLQMNSLKPEDTAVYYCAADIGSWYDYWGQGTQVTVSS	low polyreactivity
QVQLVESGGGLVQAGGSLRLSCAASGSRYSRNAMGWYRQAPGKERELVAASSYSSGSTYYADSVKGRFTISLDNAKNTVYLQMNSLIPEDTAVYYCAADTTKLQGVEGDYWGQGTQVTVSS	low polyreactivity
QVQLVESGGGLVQAGGSLRLSCAASGSIFSWYAMGWYRQAPGKEREFVAAITWGTGGTYYADSVKGRFTISRDNAKNTVYLQMNSLKLEDTAVYYCAKTRSYGRSGVSRRYGFYYWGQGTQVTVSS	high polyreactivity
QVQLVESGGGLVQAGGSLRLSCAASGSTFYYYAMGGYRQAPGKERELVAAISISDNSTYYADSVKGRFTSSRDNAKNTVYLQMNSLKPEDTAVYYCAAYGWYAHDDSTYDYWGQGTQVTVSS	low polyreactivity
